Measured values taken from article PMC7718890.

Legend:
CarD K90A;MTB RNAP (WT) = CarD K90A;MTB RNAP (WT) (Mycobacterium …, UniProt P9WJG3;P9WGZ1;P9WGY9;P9WGY7;P9WGY5 1-162;1-347;1-1178;1-1316;1-110, K90A|); assay: competition (fluorescence polarization); conditions: protein: recombinant;recombinant; tags: ;; copies: 1;2;1;1;1; blunt
CarD R47E;MTB RNAP (WT) = CarD R47E;MTB RNAP (WT) (Mycobacterium …, UniProt P9WJG3;P9WGZ1;P9WGY9;P9WGY7;P9WGY5 1-162;1-347;1-1178;1-1316;1-110, R47E|); assay: competition (fluorescence polarization); conditions: protein: recombinant;recombinant; tags: ;; copies: 1;2;1;1;1; blunt

B1: rrnAP3 native 61 bp (dsDNA)
DNA 1: GATGACCGAACCTGGTCTTGACTCCATTGCCGGATTTGTATTAGACTGGCAGGGTTGCCCC
DNA 2: GGGGCAACCCTGCCAGTCTAATACAAATCCGGCAATGGAGTCAAGACCAGGTTCGGTCATC
- Ki (CarD K90A;MTB RNAP (WT)): 85 ± 6 nM
- Ki (CarD R47E;MTB RNAP (WT)): 129 ± 14 nM
